Details in all cases: 20 nM; 72 h
Series [1] deals with MCF10A. Briefly: percent viability (nuclei count relative to siNT); higher = more viable cells. Here is the method:
(§1)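 After 72 h, cells were fixed and stained with Hoechst and anti-fibrillarin, and nucleoli per nucleus were counted with CellProfiler. Values are plate-adjusted percent effect for the one-nucleolus and 5+ nucleoli phenotypes, normalised to siNT (0%) and to the positive controls siNOL11 or siKIF11 (100%), as the mean of biological triplicates. Percent viability is the nuclei count relative to siNT.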

Series [2] deals with MCF10A. Briefly: 5+ nucleoli phenotype percent effect (relative to siNT 0% and siKIF11 100%); higher = more cells with five or more nucleoli. Here is the method:
as §1

The subject of series [3] is MCF10A. Briefly: one-nucleolus phenotype percent effect (relative to siNT 0% and siNOL11 100%); higher = more cells with one nucleolus (ribosome biogenesis inhibition). Here is the method:
as §1

This note sets out measurements from the supplement of paper PMC10899765.

“UAGGGAUGGGAGGCCAGGAUGA [hsa-miR-6757-5p]”: the percent viability in the series on MCF10A [1] came out at 41.1%. In the series with MCF10A [2], the “5+ nucleoli phenotype percent effect” value amounted to 2.44%. In addition, in the series with MCF10A [3], the “one-nucleolus phenotype percent effect” value worked out at 3.26%.

In the case of “UAGGGGAAAAGUCCUGAUCCGG [hsa-miR-6783-5p]”, the percent viability in the series on MCF10A [1] was 78.4%. Besides, in the series on MCF10A [2], the “5+ nucleoli phenotype percent effect” value was found to be 18.2%. Further, in the series with MCF10A [3], the “one-nucleolus phenotype percent effect” value was -20.2%.

UAGGGGCAGCAGAGGACCUGGG [hsa-miR-4688]: the percent viability in the series on MCF10A [1] came out at 17.5%. Further, the “5+ nucleoli phenotype percent effect” value in the series on MCF10A [2] was determined as 8.84%. Also, the “one-nucleolus phenotype percent effect” value with MCF10A [3] was 23.4%.

“UAGGGGGCGGCUUGUGGAGUGU [hsa-miR-6805-5p]”: in the series on MCF10A [1], the percent viability was 27%. For the same sequence, the “5+ nucleoli phenotype percent effect” value in the series with MCF10A [2] is 0.0052%. The “one-nucleolus phenotype percent effect” value in the series on MCF10A [3] was determined as 18.2%.

Take UAGGGGGUGGCAGGCUGGCC [hsa-miR-6732-5p]: in the series on MCF10A [1], the percent viability turned out to be 33.3%. Besides, the “5+ nucleoli phenotype percent effect” value in the series with MCF10A [2] was -15.7%. Further, the “one-nucleolus phenotype percent effect” value in the series on MCF10A [3] turned out to be 17.1%.

On to “UAGGGGUGGGGGAAUUCAGGGGUGU [hsa-miR-6782-5p]”, for which, in the series on MCF10A [1], the percent viability is 26.5%. For the same sequence, in the series with MCF10A [2], the “5+ nucleoli phenotype percent effect” value stood at 1.01%. In addition, the “one-nucleolus phenotype percent effect” value in the series on MCF10A [3] is -3.68%.

As to “UAGGGUACUCAGAGCAAGUUGU [hsa-miR-6841-5p]”, the percent viability in the series on MCF10A [1] was 63.6%. For the same sequence, in the series on MCF10A [2], the “5+ nucleoli phenotype percent effect” value is 14.6%. In the series on MCF10A [3], the “one-nucleolus phenotype percent effect” value is -4.08%.

For “UAGGGUAGACACUGACAACGUU [hsa-miR-6755-5p]”, in the series with MCF10A [1], the percent viability was found to be 19.9%. Besides, the “5+ nucleoli phenotype percent effect” value in the series with MCF10A [2] was -14.8%. In the series on MCF10A [3], the “one-nucleolus phenotype percent effect” value came out at 25%.

As for “UAGGUAGAGUGUGAGGAGGAGGUC [hsa-miR-6831-5p]”, the percent viability with MCF10A [1] came to 53.8%. In addition, the “5+ nucleoli phenotype percent effect” value with MCF10A [2] stood at 27.5%. The “one-nucleolus phenotype percent effect” value with MCF10A [3] was -21%.

For the sequence “UAGGUAGUUUCAUGUUGUUGGG [hsa-miR-196a-5p]”, the percent viability with MCF10A [1] came to 33.5%. The “5+ nucleoli phenotype percent effect” value in the series with MCF10A [2] came to 23.8%. Besides, the “one-nucleolus phenotype percent effect” value with MCF10A [3] was -16.9%.

As for “UAGGUAGUUUCCUGUUGUUGGG [hsa-miR-196b-5p]”, the percent viability with MCF10A [1] was found to be 41.4%. Moreover, the “5+ nucleoli phenotype percent effect” value in the series with MCF10A [2] came to 54.4%. The “one-nucleolus phenotype percent effect” value in the series on MCF10A [3] was -8.68%.

In the case of “UAGGUGGCAGAGGAGGGACUUCA [hsa-miR-6865-5p]”, in the series with MCF10A [1], the percent viability stood at 11.7%. Further, the “5+ nucleoli phenotype percent effect” value in the series with MCF10A [2] was -3.22%. Further, in the series with MCF10A [3], the “one-nucleolus phenotype percent effect” value was 20.5%.

“UAGGUGGCGCCGGAGGAGUCAUU [hsa-miR-6815-5p]”: the percent viability with MCF10A [1] is 13.2%. The “5+ nucleoli phenotype percent effect” value with MCF10A [2] is -6.84%. Moreover, in the series on MCF10A [3], the “one-nucleolus phenotype percent effect” value worked out at 20.3%.

With UAGGUUAUCCGUGUUGCCUUCG [hsa-miR-154-5p], the percent viability with MCF10A [1] worked out at 32.9%. The “5+ nucleoli phenotype percent effect” value in the series with MCF10A [2] was -28.7%. The “one-nucleolus phenotype percent effect” value in the series with MCF10A [3] worked out at 34.9%.

In the case of UAGUACCAGUACCUUGUGUUCA [hsa-miR-624-5p], the percent viability with MCF10A [1] amounted to 26.3%. Also, the “5+ nucleoli phenotype percent effect” value in the series with MCF10A [2] was -9.19%. Moreover, the “one-nucleolus phenotype percent effect” value with MCF10A [3] is -2.83%.

On to UAGUACUGUGCAUAUCAUCUAU [hsa-miR-1278], for which the percent viability with MCF10A [1] worked out at 73.4%. Moreover, in the series with MCF10A [2], the “5+ nucleoli phenotype percent effect” value is -12.8%. In addition, the “one-nucleolus phenotype percent effect” value in the series on MCF10A [3] is -1.62%.

In the case of UAGUAGACCGUAUAGCGUACG [hsa-miR-411-5p], in the series with MCF10A [1], the percent viability stood at 69.2%. Besides, the “5+ nucleoli phenotype percent effect” value with MCF10A [2] was determined as 15.2%. The “one-nucleolus phenotype percent effect” value in the series on MCF10A [3] was -6.18%.

Consider “UAGUCCCUUCCUUGAAGCGGUC [hsa-miR-2114-5p]”, for which the percent viability with MCF10A [1] came out at 25.2%. For the same sequence, in the series with MCF10A [2], the “5+ nucleoli phenotype percent effect” value was -46%. In the series on MCF10A [3], the “one-nucleolus phenotype percent effect” value was found to be 43.8%.

With UAGUGAGUUAGAGAUGCAGAGCC [hsa-miR-3174], the percent viability in the series on MCF10A [1] was 38.1%. The “5+ nucleoli phenotype percent effect” value in the series on MCF10A [2] was -38.2%. Also, the “one-nucleolus phenotype percent effect” value in the series on MCF10A [3] amounted to 12.5%.

With “UAGUGCAAUAUUGCUUAUAGGGU [hsa-miR-454-3p]”, the percent viability in the series on MCF10A [1] was 121%. In addition, in the series with MCF10A [2], the “5+ nucleoli phenotype percent effect” value came to 54.6%. For the same sequence, in the series on MCF10A [3], the “one-nucleolus phenotype percent effect” value was -20.8%.

For the sequence “UAGUGGAUGAUGCACUCUGUGC [hsa-miR-3681-5p]”, the percent viability in the series with MCF10A [1] was 50%. Moreover, the “5+ nucleoli phenotype percent effect” value in the series on MCF10A [2] was -13.2%. Further, the “one-nucleolus phenotype percent effect” value with MCF10A [3] was determined as 15.8%.

In the case of UAGUGGUCAGAGGGCUUAUGA [hsa-miR-6718-5p], the percent viability with MCF10A [1] turned out to be 18.9%. For the same sequence, the “5+ nucleoli phenotype percent effect” value in the series on MCF10A [2] was -44.7%. In addition, the “one-nucleolus phenotype percent effect” value with MCF10A [3] was 39.8%.

Turning to “UAGUGGUCCUAAACAUUUCACA [hsa-miR-203b-5p]”, the percent viability in the series with MCF10A [1] amounted to 15.6%. Besides, the “5+ nucleoli phenotype percent effect” value in the series with MCF10A [2] is -42.9%. For the same sequence, the “one-nucleolus phenotype percent effect” value in the series on MCF10A [3] worked out at 58.6%.

With “UAGUUCUUCCCUUUGCCCAAUU [hsa-miR-5584-3p]”, the percent viability in the series with MCF10A [1] amounted to 32.6%. In the series on MCF10A [2], the “5+ nucleoli phenotype percent effect” value is -41%. For the same sequence, the “one-nucleolus phenotype percent effect” value in the series on MCF10A [3] was 5.26%.

In the case of UAUAAAAUGAGGGCAGUAAGAC [hsa-miR-3163], in the series on MCF10A [1], the percent viability amounted to 53%. For the same sequence, the “5+ nucleoli phenotype percent effect” value in the series on MCF10A [2] turned out to be 30.5%. For the same sequence, in the series with MCF10A [3], the “one-nucleolus phenotype percent effect” value was -19.2%.

On to UAUACAAGGGCAAGCUCUCUGU [hsa-miR-381-3p], for which the percent viability with MCF10A [1] came out at 90.7%. For the same sequence, in the series with MCF10A [2], the “5+ nucleoli phenotype percent effect” value stood at 3.97%. Moreover, the “one-nucleolus phenotype percent effect” value in the series with MCF10A [3] was -13.7%.

With UAUACAAGGGCAGACUCUCUCU [hsa-miR-300], the percent viability in the series with MCF10A [1] turned out to be 68.9%. In addition, the “5+ nucleoli phenotype percent effect” value in the series with MCF10A [2] is -6.47%. Moreover, the “one-nucleolus phenotype percent effect” value in the series with MCF10A [3] was -10.6%.

For UAUACCUCAGUUUUAUCAGGUG [hsa-miR-875-5p], the percent viability in the series with MCF10A [1] was found to be 119%. Moreover, the “5+ nucleoli phenotype percent effect” value in the series on MCF10A [2] stood at 32.3%. Besides, the “one-nucleolus phenotype percent effect” value in the series on MCF10A [3] was -18.7%.

Take UAUAGAGAGCAGGAAGAUUAAUGU [hsa-miR-3976]: the percent viability in the series with MCF10A [1] was found to be 78.3%. Also, in the series on MCF10A [2], the “5+ nucleoli phenotype percent effect” value was 31.2%. Also, the “one-nucleolus phenotype percent effect” value with MCF10A [3] is -15.3%.

For the sequence “UAUAGGGAUUGGAGCCGUGGCG [hsa-miR-135a-3p]”, in the series on MCF10A [1], the percent viability was 63.5%. Besides, the “5+ nucleoli phenotype percent effect” value in the series on MCF10A [2] was 4.73%. In the series on MCF10A [3], the “one-nucleolus phenotype percent effect” value came out at 13.5%.

For the sequence UAUAUAUACAGCCAUGCACUC [hsa-miR-5011-5p], the percent viability in the series on MCF10A [1] came out at 74.6%. The “5+ nucleoli phenotype percent effect” value in the series on MCF10A [2] is 39.8%. For the same sequence, the “one-nucleolus phenotype percent effect” value in the series with MCF10A [3] is -18.5%.

Regarding UAUAUGGACUUUUCUGAUACAAUG [hsa-miR-8076], in the series with MCF10A [1], the percent viability was found to be 49.4%. For the same sequence, in the series on MCF10A [2], the “5+ nucleoli phenotype percent effect” value amounted to 44.8%. In addition, the “one-nucleolus phenotype percent effect” value in the series on MCF10A [3] is -22.4%.

Consider “UAUCAUGGAGUUGGUAAAGCAC [hsa-miR-2681-3p]”, for which the percent viability with MCF10A [1] came out at 62.4%. Moreover, the “5+ nucleoli phenotype percent effect” value in the series with MCF10A [2] worked out at 14.2%. Besides, in the series with MCF10A [3], the “one-nucleolus phenotype percent effect” value was -14.9%.

For the sequence “UAUCCAGCUUGUUACUAUAUGC [hsa-miR-5586-5p]”, the percent viability in the series with MCF10A [1] stood at 47.2%. The “5+ nucleoli phenotype percent effect” value in the series with MCF10A [2] is 7.77%. The “one-nucleolus phenotype percent effect” value with MCF10A [3] was -0.119%.

Take UAUCGUAUCGUAUUGUAUUGU [hsa-miR-5686]: the percent viability with MCF10A [1] was 93.8%. Besides, the “5+ nucleoli phenotype percent effect” value with MCF10A [2] turned out to be 39.8%. In addition, in the series on MCF10A [3], the “one-nucleolus phenotype percent effect” value is -22.7%.

Turning to UAUCUGCUGGGCUUUCUGGUGUU [hsa-miR-4686], the percent viability in the series on MCF10A [1] amounted to 34.5%. In the series on MCF10A [2], the “5+ nucleoli phenotype percent effect” value is -43.3%. Also, the “one-nucleolus phenotype percent effect” value in the series on MCF10A [3] turned out to be 43.6%.
